From patent US20240150474A1 (Regeneron, published 2024)

T1: mouse ACVR1 extracellular domain expressed with a C-terminal mouse IgG2a Fc tag (mouse, UniProt P37172 21-123)
T1 construct: extracellular domain; Bought from R&D Systems; also called mACVR1-mFc; R&D System 6506-RA-100; not shown: mouse IgG2a Fc tag
T1 sequence (looked up): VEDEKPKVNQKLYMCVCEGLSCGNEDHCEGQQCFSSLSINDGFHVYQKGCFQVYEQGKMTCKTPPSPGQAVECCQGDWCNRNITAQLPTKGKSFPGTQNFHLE

T2: human ACVR1 extracellular domain expressed with a C-terminal mouse IgG2a Fc tag (human)
T2 construct: also called hACVR1-mFc; REGN3112
T2 chain: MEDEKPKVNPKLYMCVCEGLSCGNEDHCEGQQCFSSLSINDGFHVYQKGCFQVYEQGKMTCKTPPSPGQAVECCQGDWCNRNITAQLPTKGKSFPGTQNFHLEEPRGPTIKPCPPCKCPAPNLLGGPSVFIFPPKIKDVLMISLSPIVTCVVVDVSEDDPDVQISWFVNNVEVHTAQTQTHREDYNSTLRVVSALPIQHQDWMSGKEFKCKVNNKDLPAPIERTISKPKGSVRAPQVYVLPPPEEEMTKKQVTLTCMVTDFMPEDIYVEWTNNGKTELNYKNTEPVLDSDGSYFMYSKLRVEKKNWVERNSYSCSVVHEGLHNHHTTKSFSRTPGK

T3: human ACVR1 extracellular domain expressed with a C-terminal myc-myc-hexahistidine tag (human)
T3 construct: also called hACVR1-mmh; hACVR1.mmh
T3 chain: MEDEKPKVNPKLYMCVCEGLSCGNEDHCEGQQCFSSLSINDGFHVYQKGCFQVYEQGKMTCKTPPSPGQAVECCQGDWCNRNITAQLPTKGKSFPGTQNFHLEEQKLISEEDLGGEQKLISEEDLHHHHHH


Key:
[1] = molecular target: T1, mouse ACVR1 extracellular domain …; assay: SPR Biacore T200, mAb captured by anti-human Fc, mACVR1-mFc injected, 37C
Description: (§1) Equilibrium dissociation constants (KD) for ACVR1 binding to purified anti-ACVR1 monoclonal antibodies were determined using a real-time surface plasmon resonance (SPR) based Biacore T200 biosensor. All binding studies were performed in 10 mM HEPES, 150 mM NaCl, 3 mM EDTA, and 0.05% v/v surfactant Tween-20, pH 7.4 (HBS-EP) running buffer at […]. The Biacore CM5 sensor surface was first derivatized by amine coupling with a monoclonal mouse anti-human Fc antibody (REGN2567) to capture anti-ACVR1 monoclonal antibodies. Different concentrations of ACVR1 reagents, human ACVR1 extracellular domain expressed with a C-terminal myc-myc-hexahistidine tag (hACVR1-mmh; REGN3111, SEQ ID NO: 63), mouse ACVR1 extracellular domain expressed with a C-terminal myc-myc-hexahistidine tag (mACVR1-mmh; REGN3407, SEQ ID NO: 65), human ACVR1 extracellular domain expressed with a C-terminal mouse IgG2a Fc tag (hACVR1-mFc; REGN3112, SEQ ID NO: 64); and mouse ACVR1 extracellular domain expressed with a C-terminal mouse IgG2a Fc tag (mACVR1-mFc, R&D system), at concentrations ranging from 0.41 nM to 100 nM in a series of 3-fold dilutions prepared in HBS-EP running buffer were injected at a flow rate of 50 μL/min for 1.5 minutes. The dissociation of different ACVR1 reagents bound to anti-ACVR1 monoclonal antibodies was monitored for 20 minutes in HBS-EP running buffer. At the end of each cycle, the anti-ACVR1 monoclonal antibodies capture surface was regenerated using a 12 sec injection of 20 mM H3PO4. The association rate (ka) and dissociation rate (kd) were determined by fitting the real-time binding sensorgrams to a 1:1 binding model with mass transport limitation using Scrubber 2.0c curve-fitting software. Binding dissociation equilibrium constant (KD) and dissociative half-life (t½) were calculated from the kinetic rates as: […]
(§2) Binding kinetics parameters for different ACVR1 reagents to anti-ACVR1 monoclonal antibodies of the invention at 37° C. are shown in Table 5 through Table 8.

[2] = molecular target: T2, human ACVR1 extracellular domain …; assay: SPR Biacore T200, mAb captured by anti-human Fc, hACVR1-mFc injected, 37C
Description: as §1, §2

[3] = molecular target: T3, human ACVR1 extracellular domain …; assay: SPR Biacore T200, mAb captured by anti-human Fc, hACVR1-mmh injected, 37C
Description: as §1, §2

100 nM Ag Bound (RU) [1] | Kd [1] | koff [1] | kon [1] | t½ [1] | 100 nM Ag Bound (RU) [2] | Kd [2] | koff [2] | kon [2] | t½ [2] | 100 nM Ag Bound (RU) [3] | Kd [3] | koff [3] | kon [3] | t½ [3] | Binder
135 RU | 0.0192 nM | 3.63e-05 s⁻¹ | 1.89e+06 M⁻¹ s⁻¹ | 5.3 h | 141 RU | 0.0481 nM | 5.36e-05 s⁻¹ | 1.11e+06 M⁻¹ s⁻¹ | 3.58 h | 43 RU | 0.227 nM | 0.000163 s⁻¹ | 718000 M⁻¹ s⁻¹ | 1.18 h | REGN 5167 (antibody, human IgG4 S228P, kappa, V domains shown, also called REGN 5167-L1) VH: QLQLQESGPGLVKPSETLSLTCTVSGGSITSSSYYWAWIRQPPGKGLEWIGKIYYSGSTHYNPSLKSRVTISVDTSKNQFSLKLSSVTAADTAVYYCARVGGHGYGDSAGLAFDIWGQGTMVTVSS VL: EIVLTQSPGTLSLSPGERATLSCRASQSVSSAFLAWYQQKPGQAPRLLIYGASYRHTGIPDRFSGSGSGTDFTLTISRLEPEDFAVYYCQHYGVGPRTFGGGTKVEIKR
134 RU | 0.0179 nM | 3.63e-05 s⁻¹ | 2.03e+06 M⁻¹ s⁻¹ | 5.3 h | 142 RU | 0.0478 nM | 5.65e-05 s⁻¹ | 1.18e+06 M⁻¹ s⁻¹ | 3.4 h | 43 RU | 0.26 nM | 0.000176 s⁻¹ | 677000 M⁻¹ s⁻¹ | 1.08 h | REGN 5166 (antibody, human IgG4 S228P, kappa, V domains shown, also called REGN 5166-L1) VH: QVQLVESGGGVVQPGRSLRLSCAASGFTFSAYWMHWVRQAPGKGLEWVAVISYDGSNKYYADSVKGRFTISRDHSKNTLYLQMNSLRAEDTAVYYCAKGDAYDSWRILLGGDYYGMDVWGQGTTVTVSS VL: EIVLTQSPGTLSLSPGERATLSCRASQSVSSSYLAWYQQKPGQAPRPLIYGASSRATGIPDRFSGSGSGTDFTLTISRLEPEDFAVYYCQQGGDAPPYTFGGGTKVEIKR
135 RU | 0.0362 nM | 0.000111 s⁻¹ | 3.06e+06 M⁻¹ s⁻¹ | 1.73 h | 145 RU | 0.191 nM | 0.000357 s⁻¹ | 1.87e+06 M⁻¹ s⁻¹ | 0.533 h | 42 RU | 1.21 nM | 0.00159 s⁻¹ | 1.31e+06 M⁻¹ s⁻¹ | 0.117 h | REGN 5168 (antibody, human IgG4 S228P, kappa, V domains shown, also called REGN 5168-L1) VH: QVQLVQSGAEVKEPGASVKVSCKASGYTFAEYYMHWVRQAPGQGLEWMGAINPSGSHTSYAQKFQGRVTMTRDTSTSTVYMELSSLRSEDTAVYYCARSISGKRGGDYYGMDVWGQGTTVTVSS VL: DIQMTQSPSTLSASVGDRVTITCRASQSISSWLAWYQQKPGKAPKLLIYKASSLESGVPSRFSGSGSGTEFTLTISSLQPDDFATYYCQQYSIFPFTFGGGTKVEIKR
